The target in assay [1] is T1, myosin light chain (chicken) (UniProt P02612).
T1 sequence: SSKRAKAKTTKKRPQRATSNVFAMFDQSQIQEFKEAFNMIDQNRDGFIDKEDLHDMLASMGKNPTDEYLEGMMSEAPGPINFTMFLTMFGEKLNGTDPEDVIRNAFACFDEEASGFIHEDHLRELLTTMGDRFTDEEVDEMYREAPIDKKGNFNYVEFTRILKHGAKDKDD

Assay [2] addresses intact myosin (chicken).
The target in assay [3] is S6 peptide.

B1: GST-Rho-kinase (enzyme)
chain: PTGKMPGAPEAVSGDGAGASRQRKLEALIRDPRSPINVESLLDGLNPLVLDLDFPALRKNKNIDNFLNRYEKIVKKIRGLQMKAEDYDVVKVIGRGAFGEVQLVRHKASQKVYAMKLLSKFEMIKRSDSAFFWEERDIMAFANSPWVVQLFCAFQDDKYLYMVMEYMPGGDLVNLMSNYDVPEKWAKFYTAEVVLALDAIHSMGLIHRDVKPDNMLLDKHGHLKLADFGTCMKMDETGMVHCDTAVGTPDYISPEVLKSQGGDGYYGRECDWWSVGVFLFEMLVGDTPFYADSLVGTYSKIMDHKNSLCFPEDAEISKHAKNLICAFLTDREVRLGRNGVEEIKQHPFFKNDQWNWDNIRETAAPVVPELSSDIDSSNFDDIEDDKGDVETFPIPKAFVGNQLPFIGFTYYRENLLLSDSPSCKENDSIQSRKNEESQEIQKKLYTLEEHLSTEIQAKEELEQKCKSVNTRLEKVAKELEEEITLRKNVESTLRQLEREKALLQHKNAEYQRKADHEADKKRNLENDVNSLKDQLEDLKKRNQNSQIS
Regarding B1, the apparent Km for myosin light chain in assay [1] amounted to 0.91 µM. Moreover, the phosphorylation of intact myosin (mol phosphorylation per 1 mol myosin) in assay [2] is 1. Besides, the specific activity with S6 peptide as a substrate (mol per minute per 1 mol GST-Rho-kinase) in assay [3] was determined as 41.

Values taken from US5906819.
